Measured values: the DeepSol protein solubility set

assay: soluble on expression in E. coli; label from the status in PepcDB or PDB records

With “MGSDKIHHHHHHMLKQKTLKDSFSLSGKGLHTGLDLTVTFNPAPDNHGYKIQRIDLEGQPTIDAVADNVTETTRGTVLSKNGVKVSTVEHGMAALYALGIDNCLIQVNGPEFPILDGSAQYYVQEIERVGTEEQSAVKDFYIIKSKIEFRDESTGSSIIVLPDENFSLNVLVSYDSTIIPNQFATLEDMHNFKDEVAASRTFVFVREIEPLLSAGLIKGGDLDNAIVIYERKMSQESYDKLADVMGVPHMDADQLGYINHKPLVWPNECARHKLLDVIGDLALIGKPIKGRIIATRPGHTINNKFARQMRKEIRLHEIQAPTYDCNREPVMDVNRIRELLPHRYPFQLVDKVIEMGASYIVGIKNITANEPFFQGHFPQEPVMPGVLQIEAMAQVGGLLVLNSVDEPERYSTYFMKIDGVKFRQKVVPGDTLLFRVELLAPIRRGISTMKGYAFVGEKVVCEAEFMAQIVKNK” as the sequence, how does the “soluble on expression in E. coli” value read?
Its value is “not soluble”.

For “NVLPSELPAGVDWRSRGCVTPVKDQRDCGSCWAFSTTGALEGAHCAKTGKLVSLSEQELMDCSRAEGNQSCSGGEMNDAFQYVLDSGGICSEDAYPYLARDEECRAQSCEKVVKILGFKDVPRRSEAAMKAALAKSPVSIAIEADQMPFQFYHEGVFDASCGTDLDHGVLLVGYGTDKESKKDFWIMKNSWGTGWGRDGYMYMAMHKGEEGQCGLLLDASFPVM”, which “soluble on expression in E. coli” value is on record?
Its value is “soluble”.

Which “soluble on expression in E. coli” value does the source give for “MRALREKTSMSQGVEFNRLMLDMRAMQMDAMSAPKPVSGAQEAGASSFADMLGQAVNKVAQTQQASSQLANAFEVGKSGIDLTDVMISSQKASVSFQALTQVRNKLVQAYQDIMQMPV” here?
The value was “not soluble”.

With “MLKEVPIKRRQSTKIYVGNVPVGGDAPIAVQSMTNTRTTDIEATIAQIKALERVGADIVRVSVPTMDAAEAFKVIKQQVNVPLVADIHFDYRIALKVAEYGVDCLRINPGNIGNEERIRAVVDCAKDKNIPIRIGVNAGSLERDLQEKYGEPTPQALLESALRHVEILDRFNFDQFKVSVKASDVFLAVESYRLLAKAIKQPIHLGITEAGGARAGSVKSAIGLGLLLSEGIGDTLRVSLAADPVDEVKVGFDILKSLRIRSRGINFVACPTCSRQEIDVIATVNALEQRLEDILTPMDVSIIGCVVNGPGEALVSDLGVTGSNKMSGFYLDGVRQKERFDNDKLIDQLEAKIRAKVAQQHHRIAIEQILEHHHHHH” as the sequence, how does the “soluble on expression in E. coli” value read?
Its value is “not soluble”.

With “DIQALALLEILDPIREGAAETLDYLRSQEVGLKIISGDNPVTVSSIAQKAGFADYHSYVDCSKITDEELMAMAEETAIFGRVSPHQKKLIIQTLKKAGHTTAMTGDGVNDILALREADCSIVMAEGDPATRQIANLVLLNSDFNDVPE” as the sequence, how does the “soluble on expression in E. coli” value read?
The value was “not soluble”.

With “MAHHHHHHMTVKNAAKSGKYVWHAMPEEVRKSLKRGSVDETNGIKMGKKGTHATPSEPIYMEVPPDETQRKEKSPPRGMALPHVSTPNEKQPTPMPGETTNSGDVVVSQESGCVGVTHGTQSLSSSRTLKTKHVLHFRGPGWEKVLRKNKKGLESAFKKDVFEATGLEARRIEELKFEFASMLIVTFVVRRENDDEGTSKLHSDLQACAFPRTVLLYRN” as the sequence, how does the “soluble on expression in E. coli” value read?
The value was “soluble”.

With “SATALSEEELDNEDYYSLLNVRREASSEELKAAYRRLCMLYHPDKHRDPELKSQAERLFNLVHQAYEVLSDPQTRAIYDIYGKRGLEMEGWEVVERRRTPAEIREEFERLQREREERRLQQRTNPKGTISVGVDATDLFDRYDEEYEDVSGSSFPQIEINKMHISQSIEAPLTATDTAILSGSLSTQNGNGGGSINFALRRVTSAKGWGELEFGAGDLQGPLFGLKLFRNLTPRCFVTTNCALQFSSRGIRPGLTTVLARNLDKNTVGYLQWRWGIQSAMNTSIVRDTKTSHFTVALQLGIPHSFALISYQHKFQDDDQTRVKGSLKAGFFGTVVEYGAERKISRHSVLGAAVSVGVPQGVSLKVKELEKQRESAATDVLQKKQEAESAVRLMQESVRRIIEAEESRMGLIIVNAWYGKFVNDKSRKSEKVKVIDVTVPLQCLVKDSKLILTEASKAGLPGFYDPCVGEEKNLKVLYQFRGVLHQVMVLDSEALRIPKQSHRIDTDG” as the sequence, how does the “soluble on expression in E. coli” value read?
Its value is “soluble”.

With “MKPTTRSASKRANAESSGVNQPEKKSRIPETEIVEDPLEIEVPPASADGTDNKSFSENEYDDDHSSSSDEESDDEYVVETHKSSMVDAAESSEGERPDERIVRELEQKIARGLKNDRILKKKKKALDGEVSDTEDVVCEYEPQAMPKQRRRRLYRRKMTRPQGVPKRRRIKRPDLELADDYTCDTFAEQGLTLKSLTSDIKQDDPEVDWKAMRRMGIGIRSTKRDEINSDEDEADIISHSFSFYQTRNSKEQVAQAVELNMNPFSEKIASYNAPKSVHGYSRSSIQNQHSGFIDKNDIKYPDELLWQEPFTHLVFFQSTFNAHESSIKFLNNVANSKKQERDSKLMKEIRERIKQKSLGHVDVPIDYTNVESTSEQPSTIDQYSLPDLTSQCDEGTIKEEEDFDYLMVDAEF” as the sequence, how does the “soluble on expression in E. coli” value read?
The value was “not soluble”.

Which “soluble on expression in E. coli” value does the source give for “MSDTPKYTQDQVIAIKNRILEALETVIDPELGIDVVNLGLIYEIRFNDNGYTEIDMTLTTMGCPLADLLTDYIHDALQDVPEVTKTEVKLVWYPAWTVDKMSRYARIALGIR” here?
Its value is “not soluble”.

With “MSDVDVFVIDDDFDPLADLSLDDGERDDAEADYLPPIPDADKSVVPPVVPLSATERIEKLLAGIPGQQFRLLHAVEFCTEPKTMDEAVADLDAAYPNTTSVYGSAQVVQLLERDGALERIVDEDAAHAAAGDAADTPAEDEGFISVTPAPPCRYRATQAGLDAVAAHVNEGLVAERISEDERYLPIFQRVLEMCAREGGCPTKELDQAVDGDPLCQEPRRFCGFFRGKLEETGAIEWRDAWTITDLGRSVLASGLFAAASPSER” as the sequence, how does the “soluble on expression in E. coli” value read?
The value was “not soluble”.

With “MSQEQVEMIYAKTIEQILEMTGNATANFLPVLGVKSIEMAIGQMEEYLEMLKNLRVDYEKEPNLQSCMSPRLNDSMLIHRNRLARTSKSRLALYRTSPEIARFSRGSPDDIENENLSMSKIRSITEETSILDPTLCMDETTHQRGFLADVSDMNGTVRSRMPSFNFNHISPVPAEKTRRHSVLNVTTDFDVDLSSLCEPSQIEENSGQILFQNVLESALRTPNANNNTILLTDSEVTPVNISNLWNVKLRPGSNRKIDNGIRKEIQRQLACDSQL” as the sequence, how does the “soluble on expression in E. coli” value read?
The value was “not soluble”.

For “MDGLDYFEPNPDYRVAATVEVDDSDETITMETTAEGERLYERVARLTFEVPDASDNRDEHTLVAYQRVDQRGDGSLFVPFRDKTTGQQTYPAGRYMELHYEGDLEDGATVPLDFNLAYNPFCAYSDAYECPLPPQENWLEIVVPAGERDDQLEHHHHHH”, which “soluble on expression in E. coli” value is on record?
The value was “soluble”.

With “AIAAQKISEAHEHIAKAEKYLKTSFMKWKPDYDSAASEYAKAAVAFKNAKQLEQAKDAYLQEAEAHANNRSLFHAAKAFEQAGMMLKDLQRMPEAVQYIEKASVMYVENGTPDTAAMALDRAGKLMEPLDLSKAVHLYQQAAAVFENEERLRQAAELIGKASRLLVRQQKFDEAAASLQKEKSMYKEMENYPTCYKKCIAQVLVQLHRADYVAAQKCVRESYSIPGFSGSEDCAALEDLLQAYDEQDEEQLLRVCRSPLVTYMDNDYAKLAISLKVPGGGGGKKKPSASASAQPQEEEDDEYAGGLC” as the sequence, how does the “soluble on expression in E. coli” value read?
The value was “soluble”.

For “MSLLEYLPPGVDTDRFRPDPAARAELRKRYRLGERPTVVCLSRLVPRKGQDTLVTALPSIRRRVDGAALVIVGGGPYLETLRKLAHDCGVADHVTFTGGVATDELPAHHALADVFAMPCRTRGAGMDVEGLGIVFLEASAAGVPVIAGNSGGAPETVQHNKTGLVVDGRSVDRVADAVAELLIDRDRAVAMGAAGREWVTAQWRWDTLAAKLAEGHHHHHH”, which “soluble on expression in E. coli” value is on record?
The value was “not soluble”.

Which “soluble on expression in E. coli” value does the source give for “MKNIIIIGANGFTGRQILNDLSSKAQYKVTGCSLHPDILPKNGGNYHFITTDIRDEAVVKQLFKDVQPDVVINCSALSVPDYCETHHEEAWLTNVTAVEQLAHLCESYKSRFIHLSTDFVFDGKIDEKSGQLYTEKSLPAPVNYYGFTKWKGEEKVTEICSNYAIARVEIVYGKALPGQHGNIVQLVMNRLNAGQEIRVVSDQWRTPTYVGDVSAGVQHLVENAANGIFHICGEECLTIAEIAFQVADYMKLDRSLVHPATTEEMQEATPRPRFSGMSIAKARTILGYQPRKLKDILMEWKH” here?
The value was “not soluble”.

With “MSLKARKSWISDKGPLSVSTQCELAGVTRSGYYGQSKSLMPNTEDLELMKLIDEEYTRHPFYGSRRMKRVLLAQGRKVNRKRVQRLMRNLGLAGIAPGPNTSKPHPQHKIYPYLLRGLVITRPNHVWSTDVTYCRLPGGFMYLTAVIDWYSRKVLAWRLSNSLDSSFCVDCLEEAIRKYGMPEIFNTDQGTQYTSEAFTGVLKSHDIRISMDGRGRALDNIFVERLWRNVKQEDLYLKGYETAVEMMRGLTEYFRFYNIERPHQSLGYKTPDEVYESATGGGARIVDKFFQKSVSEGSSEATGPQQEAAEGHHHHHH” as the sequence, how does the “soluble on expression in E. coli” value read?
The value was “soluble”.

For “MCGRFTLTVDLLALQDRFHFRYQGSLTPRFNIAPGQDVLTIVAEGGERVGKMMRWGLVPFWAKDARIGAKMINARAETVDEKASFRHAFKRRRCLILADGFFEWKKEGTKKVPYRFTLKTGEPFAFAGLWERWEGASDPIETCTIMTTKANELIAPIHDRMPVMLPYERHDDWLDPRLDDSEYLKSLLSPYPSGEMRMYEVAPLVNSPKNDVIACIEPVDSRSMEGT”, which “soluble on expression in E. coli” value is on record?
Its value is “not soluble”.

With “MGHHHHHHSHAPALGGQQSVSNKLLAWSGVLEWQEKPKPASVDANTKLTRSLPCQVYVNHGENLKTEQWPQKLIMQLIPQQLLTTLGPLFRNSRMVQFHFTNKDLESLKGLYRIMGNGFAGCVHFPHTAPCEVRVLMLLYSSKKKIFMGLIPYDQSGFVNGIRQVITNHKQVQQQKLEQQQRGMGGQQAPPGLGPILEDQARPSQNLLQLRPPQPQPQ” as the sequence, how does the “soluble on expression in E. coli” value read?
The value was “not soluble”.

With “LRGFIIGRFQPFHKGHLEVIKKIAEEVDEIIIGIGSAQKSHTLENPFTAGERILMITQSLKDYDLTYYPIPIKDIEFNSIWVSYVESLTPPFDIVYSGNPLVRVLFEERGYEVKRPEMFNRKEYSGTEIRRRMLNGEKWEHLVPKAVVDVIKEIKGVERLRKLAQTDK” as the sequence, how does the “soluble on expression in E. coli” value read?
Its value is “soluble”.

Which “soluble on expression in E. coli” value does the source give for “MNQIIENAFVKVEVSPHGAELQSIFNKQFHLEYLWQGDPAVWPRKAPVLFPIVGKVKDNQYTISGKTYSLSQHGFARDNAFTLVSATDTTLVYRLTHSEDSFKNFPYEFELDISYSIEHSILKVAYKIHNSSGTSDLYYSIGAHPGFRCPLVEGETFEDYYLEFEKAEKLNRVLLDGGLRGDQTEPVPLTNNKLPLSVNLFGSKDAIVVSGLHSERISLKSNKSVHGLHFDYKNYPWFGIWSKPGPFVCLEPWMGVADDIHAAGDFIKKESIQFLQPKAEALFTYSIELFLEHHHHHH” here?
Its value is “not soluble”.

Which “soluble on expression in E. coli” value does the source give for “MSLNSISHIPKAEIHVHLEATITPSLCRKFAKRNKVILSDDFFGSEYAYQWEDFYDFLKKYDIVTSVIHTPEDYYELTYAYLKECASHNVLYVEAMVSSTHAKAKGMTYQSFLDSIQEASLNAERDFGIVSRYLMNGIRHLGPESVQGTAEEVLKNPHPAIVGFGLAGDELHFPPHLFSKTFDMLKEENFPITVHAGEWDGPENIRKAINLLHPTRLGHGVRSIEDLDLVKEIIEKDIVLETCPTSNIATKIYENYENHPVKKLHELGAKVTVNSDDPPFFNATIQGEYEAMSKIGFADDVLISMTRNAIEYSFLDNQKKKEVLTKLNEGHHHHHH” here?
The value was “soluble”.

Which “soluble on expression in E. coli” value does the source give for “MAEQRSNIMRLPPSGYRLHRFPPLAQPVAVDEEFGLDNQGWQESQVDIQQQLEAGFQQGLQQGHEEGLRQGIEQGKQQGLLDGQKEGFQKGFVSGEQAGKQGFLEAAKPVNDLFQALSRWQSEKEQQQRHMICELVQKVAQQVIRAELTLMPQQILALVDETLSAMPGKAETVTVHLNPQDLERITHINADLPKSWKLVANNELPIGGCQLVTDDAEADASCDSRLEACMDNVKQHLLDEVSIPQVESENE” here?
Its value is “not soluble”.
